The values that follow come from PMC7062162.

In assay [1] the target is 0410 Y1A peptide-DR1 complex (human).
For assay [2], the target named is OPT1 Y1A peptide-DR1 complex (human).
In assay [3] the target is Y1I peptide-DR1 complex (human).
Assay [4] addresses L4G peptide-DR1 complex (human).
Assay [5] deals with L4G′ peptide-DR1 complex (human).
For assay [6], the target named is L4R peptide-DR1 complex (human).
For assay [7], the target named is A6E peptide-DR1 complex (human).
Assay [8] addresses A6G peptide-DR1 complex (human).
Assay [9] concerns the target I9E peptide-DR1 complex (human). The assay is described as follows: fluorescence polarisation; real-time fluorescence anisotropy of Alexa Fluor 488-peptide leaving DR1 (50 nM complex) with titrated HLA-DM (up to 90 μM) and 20 μM unlabeled competitor peptide; 250 mM citrate, 150 mM NaCl, pH 5.0, 37 °C; kobs fitted to a Michaelis-Menten model, Km taken as Kd of DM for the pMHCII (OPT1-DR1: initial velocities, Lineweaver-Burk).

On to “soluble recombinant HLA-DM (DMA*0101/DMB*0101) (complex)”, for which, in [1], the kcat, fold change against the 0410 complex came to 8 fold. The kcat, fold change against OPT1-DR1 in [2] was above 2600 fold; in assay [4], above 120 fold; in assay [6], above 1300 fold; in assay [8], 2 fold. Also, the kcat, fold change against the homologous complex with Tyr at P1 in [3] was determined as 18 fold. Further, in assay [5], the kcat, fold change against the I9E complex worked out at 510 fold. For the same substance, the kcat, fold change against OPT1-DR1 (A6E) in assay [7] is above 200 fold. Besides, the kcat, fold change against the A6G complex (G6E) in assay [7] is above 100 fold. The fold decrease in Km against the homologous complex with Ile at P9 in assay [9] stood at 9 fold.
